Measured values: paper PMC6979384, “Characterization of the plant homeodomain (PHD) reader family for their histone tail interactions” (Epigenetics & Chromatin, 2020)

Experiment: dCypher AlphaScreen Phase A, optimal reader concentration range
Type: binding
Conditions: 100 nM biotinylated peptide; 30 min + 60 min at 23 °C; AlphaLISA; n = 2
Procedure: Fig. 3 dCypher histone peptide-binding assays define the PTM recognition preference of PHD proteins with high sensitivity. a–h Binding curves to determine optimal reader protein concentration for full peptide library screening on the dCypher® AlphaScreen® platform (see “Methods”). X-axes are log(protein concentration (M)) at constant peptide concentration (100 nM); Y-axes are AlphaScreen counts, representing relative strength of binding (n = 2; error bars are S.D.). i Heat map represents relative binding to H3 N-terminal peptides (left) by PHD-containing GST-tagged proteins (top) using the dCypher AlphaScreen platform. Protein concentrations can be found in Additional file 5: Table S4. Binding strength is indicated by color gradient from green to yellow (stronger to weaker). The asterisk (*) by MLL5 signifies its general preference for H3K4 methylation. Alpha counts (n = 2) were normalized individually for each protein to the highest signal for each respective assay. For full dCypher peptide screen data, see Additional file 4: Table S3
We next employed a highly sensitive proximity-based AlphaScreen histone peptide assay (dCypher®) to provide a third and orthogonal approach to analyzing the histone binding preferences for a subset of the 31 PHD proteins with respect to various histone tail PTMs. In this assay, biotinylated peptides are bound to streptavidin “donor” beads and the GST-tagged reader domains bound to Glutathione “acceptor” beads. The donor beads are excited by 680 nm light, releasing a singlet oxygen which causes light emission (520–570 nm) in proximal acceptor beads (within 200 nm); emission intensity is then correlated to binding strength. […] Additionally, we examined several well characterized PHD–PTM interactors [DIDO1, KDM7A, and DPF2 (PPC2W2)] for positive controls and to provide a benchmark. Initial binding assays were conducted for each fusion protein using three peptides [H3 (1–20) with K4me0, H3K4me3 or H3K9me3] to determine the optimal reader domain concentration for full peptide library studies (Fig. 3a–h; Additional file 4: Table S3 and Additional file 5: Table S4). This is an important first step as signal often declined after query protein saturation (the ‘hook point’, caused by excess free query competing with bead bound).
The dCypher peptide screen assay was performed as previously described. Briefly, 5 μL of GST-tagged reader domains (optimal protein concentration for library screening determined by initial binding curves to candidate peptides) were incubated with 5 μL of 400 nM (100 nM Final) biotinylated histone peptides (EpiCypher) for 30 min at 23 °C in 1× AlphaLISA Epigenetics buffer + epigenetics buffer supplement (PerkinElmer, AL1008) in a 384-well plate. […] Plates were incubated at 23 °C in subdued lighting for 60 min and AlphaLISA signal measured on a PerkinElmer 2104 EnVision (680 nm laser excitation, 570 nm emission filter ± 50 nm bandwidth).
Supplementary file 13072_2020_328_MOESM4_ESM.xlsx: Additional file 4: Table S3. dCypher Results. Excel Tab Peptide Phase A is a compiled set of binding data: chromatin reader titration vs. several peptide targets. […] Excel Tab Peptide Phase B is a compiled set of binding data: chromatin reader at optimized concentrations vs. entire 293 peptide library. […]

Molecule	Phase A Optimal Range (reader concentration) [nM]
TRIM66 (PB): GST-tagged PHD + Bromo, 966-1216 (protein, GST tag) APIENEDFCAVCLNGGELLCCDRCPKVFHLSCHVPALLSFPGGEWVCTLCRSLTQPEMEYDCENACYNQPGMRASPGLSMYDQKKCEKLVLSLCCNNLSLPFHEPVSPLARHYYQIIKRPMDLSIIRRKLQKKDPAHYTTPEEVVSDVRLMFWNCAKFNYPDSEVAEAGRCLEVFF	0.5 to 10
CHD4 (PPCC): GST-tagged Dual PHD + Dual Chromo, 350-710 (protein, GST tag) KKKKKGEEEVTAVDGYETDHQDYCEVCQQGGEIILCDTCPRAYHMVCLDPDMEKAPEGKWSCPHCEKEGIQWEAKEDNSEGEEILEEVGGDLEEEDDHHMEFCRVCKDGGELLCCDTCPSSYHIHCLNPPLPEIPNGEWLCPRCTCPALKGKVQKILIWKWGQPPSPTPVPRPPDADPNTPSPKPLEGRPERQFFVKWQGMSYWHCSWVSELQLELHCQVMFRNYQRKNDMDEPPSGDFGGDEEKSRKRKNKDPKFAEMEERFYRYGIKPEWMMIHRILNHSVDKKGHVHYLIKWRDLPYDQASWESEDVEIQDYDLFKQSYWNHRELMRGEEGRPGKKLKKVKLRKLERPPETPTVDPTV	0.45 to 10
CHD5 (PPCC): GST-tagged Dual PHD + Dual Chromo, 330-670 (protein, GST tag) KRIDDGDGYETDHQDYCEVCQQGGEIILCDTCPRAYHLVCLDPELEKAPEGKWSCPHCEKEGIQWEPKDDDDEEEEGGCEEEEDDHMEFCRVCKDGGELLCCDACPSSYHLHCLNPPLPEIPNGEWLCPRCTCPPLKGKVQRILHWRWTEPPAPFMVGLPGPDVEPSLPPPKPLEGIPEREFFVKWAGLSYWHCSWVKELQLELYHTVMYRNYQRKNDMDEPPPFDYGSGDEDGKSEKRKNKDPLYAKMEERFYRYGIKPEWMMIHRILNHSFDKKGDVHYLIKWKDLPYDQCTWEIDDIDIPYYDNLKQAYWGHRELMLGEDTRLPKRLLKKGKKLRDDK	1 to 35
DPF2 (PPC2W2): GST-tagged Dual PHD + C2W2 finger, 190-391 (protein, GST tag) VGSARKKLDASILEDRDKPYACDICGKRYKNRPGLSYHYAHSHLAEEEGEDKEDSQPPTPVSQRSEEQKSKKGPDGLALPNNYCDFCLGDSKINKKTGQPEELVSCSDCGRSGHPSCLQFTPVMMAAVKTYRWQCIECKCCNICGTSENDDQLLFCDDCDRGYHMYCLTPSMSEPPEGSWSCHLCLDLLKEKASIYQNQNSS	0.05 to 1
PHRF1 (RP): GST-tagged RING + PHD, 90-250 (protein, GST tag) QGKLEAAGSFNSDDDAESCPICLNAFRDQAVGTPENCAHYFCLDCIVEWSKNANSCPVDRTLFKCICIRAQFGGKILRKIPVENTKASEEEEDPTFCEVCGRSDREDRLLLCDGCDAGYHMECLDPPLQEVPVDEWFCPECAAPGVVLAADAGPVSEEEVS	5 to 30
